# Experiment: soluble on expression in E. coli; label from the status in PepcDB or PDB records
row,Sequence,soluble on expression in E. coli
1,MGSDKIHHHHHHMTDVTQGRIPHAVYIDPGLPEYRDNPLIASLPPIFDTKQVITKLRLKPLYDSAERNLDGRLRVHAIARLLNRFFQPLSHHLELEQKISLILRQGYLGRNPEQGSYHLHLQNGFKRIQEEDLDAFVFDQARSSANSLSLFGCSGCGKSVTINRILSVYEQAIFHPEHNITQLTYLKIECPVDGDLDELCLSFFNEVDRVLHTQYSTSHGRKKLGTKRLMASMCQIANLHALGVLIIDEVQNLNEAKSGGAEKMHNFFVSLVNTIGVPVIQVGTHRARKFFQRTFRAARRITGFGSLLWDRLPNDHQWRQLLKLLWQYQWLRSAEPINDELVGTMYDLTQGVMDIVVKLYVLAQVRAIVTGMERITSELLKQVYHDEFKPVHPMLAALRSNNPGLLEQYDDLLMPEIEARMLSMVSSLEQADTYVDRPEISTDKSKKLLVLLSQMDIPEDIAIPLVDRVISRHPELSVAALMHKVTEYTADVTAEPPKINRIKRTQWLELPTNDLRYLYASSDKNNVYQLFKNQGLIYDLKSVSNRTG,not soluble
2,MGSDKIHHHHHHMTEATYYFIGIKGSGMSALALVLHDLGHQVLGSDITQYTFTQKGLAAAGIKMLPFDPANLKPGYTVIAGNSFTDDHPEIKRAKELGLTIYRYHEFLGKLIEGYTSIGVAGAHGKTSTTGLLAHTLSGVAKTSYLIGDGTGKGIPDSKFFVFEADEYRRHFLAYHPDYMIMTNIDFDHPDYYTGFEDVYDAFETEANQVKKAIVAWGDDPWLRKLKAKVPVYYYGISDRDDFQARNVDRDTKGSSFDAYFHDQLIGHFFVPLFGEHSVLNALAVVAVAHMEKLDAKLIARELGNFSGVKRRFAEKDLKDMIIVDDYAHHPNEIKATLDAARQKYPDKAIIAVFQPHTFSRTQAYEPQYVQVLSQADQTFLTPIFSSAREKTGKIRSEDITAQIKGAAVIHQEDMKPLLQYHNAVVVFMGAGDIQKYEKAYETILAEE,not soluble
3,MGSDKIHHHHHHMTEGISIAVLDNDSWSLRAIARWIDGSSPLYHVIWQTTSAAEAIHRCIYTNDKPNVLLLDMALNDATGISVCTQIRKRTADIGIIGITAYDPERYKTDLALAGGQALIAKENLAHVCNKVLPIVAQGKSAEPNSFPTAKQAHDILAEQPSSFSQIKQLSPRELQVLRLYTQNNNTSEIASQLGISSNTVFSYIHRVSKKIGTKNRSEIIRLCKKYDIL,not soluble
4,MGSDKIHHHHHHMTEKFNRQRAENLIAIANQFAQLGKVTAVKAFGSGNINDTFLVTLDSSKEQHFVLQRINTQVFRQPKLIMQNMRTFTEHVHKRLQHTPLNRRWEVPRVLLTKDAQDHCQDSDGSFWRAISFIEGSQSFDTMRDRSQAKEIGYALGMFHNLISDLPPEKLADTLQGFHITPLYLQHYEEVLAKTSASQSSEVNYCLQFVSDRQAFAHILENAKAEGKLPLRLMHGDPKINNVMFDTVTQQAVSVIDLDTVKPGLVHYDIGDCLRSGCNQAGEETENWESVHFDPGLCQGILQGYLSVAKAFLTENDYAYIYDAIRLIAFELGLRFFADYLAGNVYFKVKHPEHNLARAIVQFKLTESIESQETQIRNIIKDMK,not soluble
5,MGSDKIHHHHHHMTEKTTAELENLRGLIDGVDSQLLSLLRKRLDLVAQVGTVKHAAGLPIYAPAREAAMLGKRRAEAEAMGVSPQLIEDILRRLMRESYMSEKDVGFKQVNPELGHIVIIGGQGQLGRLFAQMFALSGYEVRLLDKDDWDHADELFDGAGLVLVTVPIATTCSLIRERLDHLPEHCILADLTSVKGAPLKAMLETHKGPVVGLHPMFGPDVGSLAKQVVVVCHGRAPEKYQWLMEQIGIWGARLVEADAGRHDKAMQLVQAMRHFSSFVYGLNLCREQADIDTLLEFSSPIYRLELAMVGRLFAQSGELYADIIFAQEESLTAISDFIDNYRDALELLKTGDRAGFIARFNEVSNWFGNYSQQFLTESRAMLQSVNDMRSV,not soluble
6,MGSDKIHHHHHHMTERELEILALLKQDPLIPQQELADRLGISRSAVAGHIMNLTNKGVIRGKGYILAEAKYAMVIGGANMDILGRPASSLRVGDSNPGSVSCSPGGVGRNIAENLARLGSDTRLMTAVGKDAYGQQIVEHCQRAGIDMKPSLQLSDGVTSTYLSVLDGDSDMHVAINDMAILERLGVEQLKSQQEMLKRASLAIIDANLSEAALAYLLSNFADIPLFVDTVSCAKAEKIKPYLGAVHTLKPNLKEAEQLSGISIANYGELPVLANWFHEQGVKRVFLSLGIDGVFYSDGEEQAHIPAIPVEMVNANGAGDAFLAGLAHGFMQGWSTRQSTEFAMAAAVVALSDLATINPNMSEISVNRVIKESLC,not soluble
7,MGSDKIHHHHHHMTERNSQDIGIQARFAEAEALGAHVYVLAAPLHNGSLPGALSVRRDHVACMLDGGADVQAVSPHLIYIPPSHFESARGWLERHGPASPCATILASPLPLAALAEHLKSFLRVCLPDGEPIVLAYWDPAILATLVGSAEDETLFVKGPVLSGEQRQAFLAPILRWTYWDRKGALRQIDWRQDRMPASAATLKPPLKLDQGQVDALTEASVPDGLLQHFSEHAPELLADVPERDRYGFVCRQIARARQHGIEGPGAWMDYCALAMRHGEAFDSHPDGVALLRTILPTASDRFSAS,not soluble
8,MGSDKIHHHHHHMTFILNSQNVFNYLLEKGLCNQSEQPPAKIEQLTAKNFNLLVTLPGDRKLLVKQERHNPEGKAAGEFLIEWRIQEFLQQFPNLSNYRSFLPEVLHFDVENSIIVFKYFDDYRDLMDFYTKGNSFNIEIATAIGNILGTIHRDTFNRQEYQEFFTKNSDNLMGDQVLHLVRRLERVEPEIFGIVPSDGLKFFALYQRYDSLGQAIAELGNAVTPSCLTHNDLKLNNILLHKDWQDSSNNIVRLIDWERSAWGDPAFDLGTLISSYVQIWLGSLVISNSLSIEESLRLAITPLEVLQPSISTLTQAYLKTFPEILDHRSDFLQRVVQFTGFTLIQQIQAMIQYQKSFGNMGIAMLQVAKTLLSRPVQSMPTIFGAAAVELGHLNNSPV,not soluble
9,MGSDKIHHHHHHMTGIALSPIGALWGIVGAKTHGTVEMGAALTHRGCYMAMEEGPTFSFGARHSAEIWPISVDDDIAVVYSGFPFVVDEETRTPRYLSAEDIRTEFLRFGADFFRVLCGHYAIAVYCYTRHRLILVRDAFGVQSLSWASSNENFAFSTEYKALLSLPWVERNLDHDAARGFVDDGWAPAGRTFLRHISMVLPGSILIWQNGNLETIHLRQDLCKTRPPFRPISVRHVEMTVRETIGWQANDFSPRYGVMLSSGVDSAVIAATLRRIRRDSEIHTFTVGYGYDDPEIIGASATASVLGTQHHEIIVRPDALTALLTDTIVAVDNPGGYEEFPCLYALHQEARQFVDIIFSGNAADTLFAGMPYHRDLLSTDDAIYRRLCNDLTVRDERLAAQELLAGRHGLNFRMPYAERILIDLALEIPDFQKLSPENDKIIFREAARQILPDEITMRPKRIQHLLYDDSMCSWLAERIEWICSSSLLRTHSLGELEGAAILPPRNLELTEESFKAAWNVVALATWASIYLA,not soluble
10,MGSDKIHHHHHHMTILHSTDFFKAGISTVAIEPRLPQSAFPEHHHDFHEIVIVEQGSGIHVFNGQPYTIGGGSVCFIRDHDRHLYEHTDNLCLTNVLYRAPDAFRFLAGVSQLLPQEQEGNYPSHWRVNQTVLQQVRHIVAQIEAVGSDTDTHAVASREILFMQLLVLLRKSSLAEEATNNDARLNQLLAWLEDHFAQEICWEEVAAQFSLSLRTLHRQLKQQTGLTPQRYLNRVRLMKARHLLRHSDESVTDIAYRCGFGDSNHFSTLFRREFDWSPRDIRQGRDAILQ,not soluble
11,MGSDKIHHHHHHMTINDLQAFVMVYDLRHISNAAVELHLSQSELSKRMRALENELNIKLLDTHNKRRLQITPAGETFYHHAHKMITDYETMMHDLAPNRPTTFAKLIIGAIPISGQYNIAKKIATFDTQHPDTEIKIIEDEGDQIVKRLLSGELQAAIIRDTQTTQLQPTEFQKQPLLADELKIILPRDHPLATQPVIRIQDLARQKIATLPPGSGVYEPINALFAQQGMTPQFFFESTHIETLLGILNQNNVTFLFKQSVLPFMTEHVVMRSLAIPFISQLNFVYPQRTGNQLLTDLIDYLTVTAQENQQV,not soluble
12,MGSDKIHHHHHHMTIYTLSHGSLKLDVSDQGGVIEGFWRDTTPLLRPGKKSGVATDASCFPLVPFANRVSGNRFVWQGREYQLQPNVEWDAHYLHGDGWLGEWQCVSHSDDSLCLVYEHRSGVYHYRVSQAFHLTADTLTVTLSVTNQGAETLPFGTGWHPYFPLSPQTRIQAQASGYWLEREQWLAGEFCEQLPQELDFNQPAPLPRQWVNNGFAGWNGQARIEQPQEGYAIIMETTPPAPCYFIFVSDPAFDKGYAFDFFCLEPMSHAPDDHHRPEGGDLIALAPGESTTSEMSLRVEWL,not soluble
13,MGSDKIHHHHHHMTKHNKAYKFRLYPTGDQAHLMRKTFGCVRFVYNRMLAERKEAYEKHKDDKEQLKKQKLPTPAKYKAEFEWLKEVDSLALANAQLNLQTAYKNFFRGQNDFPTFKSKKDRKSYTTNVVNGNIMLLNGHIKLPKLKMVRIKQHREIPQDHVIKSCTISMTPTGKYYVSILTEYEKEIVQNEVETVVGLDFAMDRLYVSSEDERANYPKFYREMLDRLAKAQRVLSRRTKGSIRWNKQRIRVAKLHEKVANQRKNFLHHKSKELATHFDVVAIEDLNMKGMSQALHFGKSVADNAWGMFTSFLAYKLHEQGKQLMKIDKWFPSTKTCSSCGNVKNMSLSERVYSCICGVNLDRDYNAAINIKNEAIRLLALA,not soluble
14,MGSDKIHHHHHHMTKKILFCATVDYHFKAFHLPYFKWFKQMGWEVHVAANGQTKLPYVDEKFSIPIRRSPFDPQNLAVYRQLKKVIDTYEYDIVHCHTPVGGVLARLAARQARRHGTKVLYTAHGFHFCKGAPMKNWLLYYPVEKWLSAYTDCLITINEEDYIRAKGLQRPGGRTQKIHGIGVNTERFRPVSPIEQQRLREKHGFREDDFILVYPAELNLNKNQKQLIEAAALLKEKIPSLRLVFAGEGAMEHTYQTLAEKLGASAHVCFYGFCSDIHELIQLADVSVASSIREGLGMNVLEGMAAEQPAIATDNRGHREIIRDGENGFLIKIGDSAAFARRIEQLYHKPELCRKLGQEGRKTALRFSEARTVEEMADIYSAYMDMDTKEKSV,not soluble
15,MGSDKIHHHHHHMTKNKLNQNSYELEKVKERIEQILSQFFPEQIMKDLPLYGKMLRVRLSILSFKNRGVEIGEDAISSLAALELVHLASLLHDDVIDGARFRRGKETINFMYGDKAAVAAGDLVLVSAFHTVEEIGNNKLRRAFLNVIGKMSEAELIEQLSRYKPITKEEYLRIVEGKSGALFGLALQLPALLEGELGEDLYNLGVTIGTIYQMFDDIMDFAGMEKIGKDGFLDLKNGVASFPLVTAMEKFPEARQMFENRDWSGLMSFMREKGILKECEETLKVLVKNVIIENSWLRDFVDGIFKIKISS,not soluble
16,MGSDKIHHHHHHMTKNNEAGWNLDNSYATLPHSFYTEIPPTPVSSPELVKLNHSLAISLGFNPEELKKETEIAIFAGNALPEGAHPLAQAYAGHQFGHFNMLGDGRALLIGEQITPSGKRFDIQLKGSGPTPYSRRGDGRAALGPMLREYIISEAMYALDIPTTRSLAVVTTGEPTYRETKLPGAILTRVASSHIRVGTFQYAAARGSIEDLQSLADYTIKRHYPEIEDPENRYTALLQEVIKKQASLIAKWQLVGFIHGVMNTDNITISGETIDYGPCAFMDHYDQGTVFSSIDTQGRYAYGNQPYMAAWDLARLAESLIPILHEDEEEALKIAQDEISKFSVQYENLWFLGMKKKLGLFSNEEQDHSLIEQLLKMMEKYKADYTNTFRSLTLNTLENTPLFDSSEFKEWYKLWQSRLERQDESKENAYEMMKNNNPSIIPRNHRVEEALEAAVTNGDYSVMEKLLEALANPYAYATDQEEYCVTPAPTNRPYRTFCGT,not soluble
